The target in the data set is T1, CLAMP (recombinant full-length) (UniProt Q9V9N4 1-561).
T1 sequence: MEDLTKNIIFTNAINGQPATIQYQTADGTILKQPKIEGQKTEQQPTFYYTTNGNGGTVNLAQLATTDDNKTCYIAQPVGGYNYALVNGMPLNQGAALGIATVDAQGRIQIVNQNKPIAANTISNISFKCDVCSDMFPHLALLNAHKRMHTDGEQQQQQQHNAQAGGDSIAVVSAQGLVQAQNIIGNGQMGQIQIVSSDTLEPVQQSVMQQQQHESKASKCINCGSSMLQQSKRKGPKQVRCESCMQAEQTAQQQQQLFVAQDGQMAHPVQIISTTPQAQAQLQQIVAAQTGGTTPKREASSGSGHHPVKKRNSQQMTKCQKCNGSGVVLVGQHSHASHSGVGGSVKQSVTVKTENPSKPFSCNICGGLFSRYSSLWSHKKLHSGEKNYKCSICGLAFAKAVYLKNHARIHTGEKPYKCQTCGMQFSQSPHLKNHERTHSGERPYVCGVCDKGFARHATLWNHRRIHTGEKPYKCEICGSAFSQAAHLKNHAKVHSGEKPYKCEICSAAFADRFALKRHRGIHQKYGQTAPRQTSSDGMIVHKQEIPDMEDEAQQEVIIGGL
Put plainly: EMSA. In general terms: In EMSA bound probe runs differently from free probe, usually more slowly.

B1: GA del H3/H4p probe, biotin (198 bp) (dsDNA)
DNA 1: CACAGCACGAAAGTCACTAAAGAACTAATTTCAACGTTTCTGTGTGCCCCTATTTATAGGTAAAACGACAAAAACCCTACGAACGATATGTTCGTTCGCTTTTCGCTCGTCAAATGAAATGGCCTCTGTTTTTTCACCGTCCACGATTGCTATATAAGTAGGTAGCAAATGCTCTGATCGTTTATTGTGTTTTCAAAC
DNA 2: GTTTGAAAACACAATAAACGATCAGAGCATTTGCTACCTACTTATATAGCAATCGTGGACGGTGAAAAAACAGAGGCCATTTCATTTGACGAGCGAAAAGCGAACGAACATATCGTTCGTAGGGTTTTTGTCGTTTTACCTATAAATAGGGGCACACAGAAACGTTGAAATTAGTTCTTTAGTGACTTTCGTGCTGTG
For B1, the binding result is “no binding”.

Values taken from PMC10723421.
